This note sets out measurements from PMC4433263, “Identification of Rv3852 as an Agrimophol-Binding Protein in Mycobacterium tuberculosis” (PLoS ONE, 2015).

Series [1] addresses Rv2466c (UniProt O53193). Briefly: EMSA. Conditions: binding buffer and pH not stated ([…].
Series [2] addresses T1, Rv3852 (Mycobacterium tuberculosis H37Rv) (UniProt I6YHB0).
T1 sequence: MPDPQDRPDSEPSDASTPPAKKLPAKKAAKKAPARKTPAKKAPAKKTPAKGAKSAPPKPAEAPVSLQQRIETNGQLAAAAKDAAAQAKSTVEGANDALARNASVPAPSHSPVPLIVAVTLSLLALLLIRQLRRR
In words: EMSA. Conditions: binding buffer and pH not stated ([…].

Chain of Rv2466c (O53193 whole entry): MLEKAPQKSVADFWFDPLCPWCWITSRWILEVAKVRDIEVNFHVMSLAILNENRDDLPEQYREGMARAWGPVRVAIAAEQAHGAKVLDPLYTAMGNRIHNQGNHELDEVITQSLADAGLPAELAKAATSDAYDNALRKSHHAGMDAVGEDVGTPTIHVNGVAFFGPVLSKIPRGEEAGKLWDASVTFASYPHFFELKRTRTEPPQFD

Turning to “AATTCCGGCGCCTTCCCGGGCCGGAAGCCGGGCAGCCGCACCTGTTTGGCCAGCTCTTTGTAGGCCCGCTGGAAATCCGGCTCAAGCTCGGCGAATGGCACCTCCACGTTGATACGAACCCGGGTGGGGCTCAACTGCTCGACGGTGCTCTTCACGGGTGTGCTCCTTGGTAGTCGATAACGGCGGTCGGCTGGTCGGGGTGACAGGATTTGAACCTGCGGCCTTCCGCTCCCAAAGCGGATGCGCTACCAAGCTGCGCTACACCCCGCGCTGACCTCGCGATCCTACG / AATTCGTAGGATCGCGAGGTCAGCGCGGGGTGTAGCGCAGCTTGGTAGCGCATCCGCTTTGGGAGCGGAAGGCCGCAGGTTCAAATCCTGTCACCCCGACCAGCCGACCGCCGTTATCGACTACCAAGGAGCACACCCGTGAAGAGCACCGTCGAGCAGTTGAGCCCCACCCGGGTTCGTATCAACGTGGAGGTGCCATTCGCCGAGCTTGAGCCGGATTTCCAGCGGGCCTACAAAGAGCTGGCCAAACAGGTGCGGCTGCCCGGCTTCCGGCCCGGGAAGGCGCCGG [proU2]”, the values for the binding result in series [1] and in series [2] were “no binding” and “binds”, respectively.
